Measured values reported in PMC12682024.

Target: dopamine 2 receptor (D2R) with SmBiT tag (UniProt P14416)
Assay: split reporter (BiFC, NanoBiT); NanoBiT in cells: SmBiT on D2R, LgBiT on Gβ; stimulation with dopamine; Gαo-free control = 0% interaction, WT Gαo = 100% interaction

Sequence of UniProt P14416 (P14416 whole entry): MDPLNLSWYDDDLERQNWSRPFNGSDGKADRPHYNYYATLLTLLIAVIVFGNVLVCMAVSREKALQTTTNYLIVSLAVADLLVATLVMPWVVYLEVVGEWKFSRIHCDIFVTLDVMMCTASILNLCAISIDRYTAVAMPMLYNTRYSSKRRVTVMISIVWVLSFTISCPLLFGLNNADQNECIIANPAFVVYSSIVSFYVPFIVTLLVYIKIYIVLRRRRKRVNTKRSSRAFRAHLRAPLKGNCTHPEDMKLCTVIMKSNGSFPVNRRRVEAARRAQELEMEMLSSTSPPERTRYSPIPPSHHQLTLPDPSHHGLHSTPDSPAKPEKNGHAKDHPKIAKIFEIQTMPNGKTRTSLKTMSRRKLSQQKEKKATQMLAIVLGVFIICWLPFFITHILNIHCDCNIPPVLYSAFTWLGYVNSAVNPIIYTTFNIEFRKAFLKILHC

fold change of receptor-Gβγ interaction against WT Gαo: 4 fold
Sequence: G protein heterotrimer of N76K Gαo with LgBiT-tagged Gβ and Gγ (from UniProt P09471 1-354; P62873 1-340; P59768 1-71) (complex)
